Reference: PMC5849677, “A novel C3d-containing oligomeric vaccine provides insight into the viability of testing human C3d-based vaccines in mice” (Immunobiology, 2018)

What was measured:
[1] = target: T1, hC3dg (aa 955-1303)-Fc (human, UniProt P01024 955-1303); test: SPR; Biacore; hC3d or C3d(g)-Fc fusions immobilised by amine coupling (94.3-96.2 RU); Fc-fusion analytes 0.195-50 nM in HBS-EP+, physiological salt, 360 s injection; steady state affinity model; apparent KD; conditions: both partners purified
T1 construct: human complement C3, C3dg fragment, aa 955-1303 (of pre-pro C3); also called hC3dg-Fc; hC3d with the g fragment attached

[2] = target: T2, mC3d-Fc (mouse, UniProt P01027 1002-1303); test: as above; conditions: both partners purified
T2 construct: mouse complement C3, C3d fragment
T2 sequence (P01027 1002-1303): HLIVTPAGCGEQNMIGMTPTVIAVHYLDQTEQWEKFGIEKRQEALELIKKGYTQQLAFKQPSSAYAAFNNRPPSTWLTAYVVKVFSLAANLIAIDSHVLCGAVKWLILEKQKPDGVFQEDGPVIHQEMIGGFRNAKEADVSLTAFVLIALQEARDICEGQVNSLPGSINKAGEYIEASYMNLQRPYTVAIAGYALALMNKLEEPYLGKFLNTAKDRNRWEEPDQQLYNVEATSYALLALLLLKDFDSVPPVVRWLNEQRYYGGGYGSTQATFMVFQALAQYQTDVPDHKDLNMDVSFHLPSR

T1 sequence (P01024 955-1303): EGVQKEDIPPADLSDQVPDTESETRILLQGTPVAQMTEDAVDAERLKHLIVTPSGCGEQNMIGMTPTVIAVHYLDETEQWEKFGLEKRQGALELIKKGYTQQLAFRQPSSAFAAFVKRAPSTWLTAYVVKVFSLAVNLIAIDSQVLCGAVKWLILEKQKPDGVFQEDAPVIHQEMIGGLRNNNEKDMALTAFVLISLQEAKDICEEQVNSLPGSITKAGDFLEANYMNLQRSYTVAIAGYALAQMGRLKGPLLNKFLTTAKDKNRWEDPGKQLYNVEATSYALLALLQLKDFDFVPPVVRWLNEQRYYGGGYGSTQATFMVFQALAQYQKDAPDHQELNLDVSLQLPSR

B1: hCR2 (SCR1-4)-Fc (Fc fusion)
chain: ISCGSPPPILNGRISYYSTPIAVGTVIRYSCSGTFRLIGEKSLLCITKDKVDGTWDKPAPKCEYFNKYSSCPEPIVPGGYKIRGSTPYRHGDSVTFACKTNFSMNGNKSVWCQANNMWGPTRLPTCVSVFPLECPALPMIHNGHHTSENVGSIAPGLSVTYSCESGYLLVGEKIINCLSSGKWSAVPPTCEEARCKSLGRFPNGKVKEPPILRVGVTANFFCDEGYRLQGPPSSRCVIAGQGVAWTKMPVCEE
notes: human complement receptor 2, short consensus repeats 1-4; also called hCR2-Fc; soluble hCR2; source: CHO cells, transfected, purified from tissue culture supernatant
With B1 the Kd [1] was 3.1 to 5.1 nM, the Kd [2] was 1.47 ± 0.47 nM and the “fold higher affinity than for hC3d-Fc” value [2] was 4 fold.
